These are literature values, as cited in PMC9506339.

The target of series [1] is vitamin D-binding protein (UniProt P02774).
Series [2] shares this target. This is another data set of the same source.

pKd: −log10 of the molar value. Like-named read-outs stand apart in the source and are kept apart here.

UniProt P02774, sequence (P02774 17-474): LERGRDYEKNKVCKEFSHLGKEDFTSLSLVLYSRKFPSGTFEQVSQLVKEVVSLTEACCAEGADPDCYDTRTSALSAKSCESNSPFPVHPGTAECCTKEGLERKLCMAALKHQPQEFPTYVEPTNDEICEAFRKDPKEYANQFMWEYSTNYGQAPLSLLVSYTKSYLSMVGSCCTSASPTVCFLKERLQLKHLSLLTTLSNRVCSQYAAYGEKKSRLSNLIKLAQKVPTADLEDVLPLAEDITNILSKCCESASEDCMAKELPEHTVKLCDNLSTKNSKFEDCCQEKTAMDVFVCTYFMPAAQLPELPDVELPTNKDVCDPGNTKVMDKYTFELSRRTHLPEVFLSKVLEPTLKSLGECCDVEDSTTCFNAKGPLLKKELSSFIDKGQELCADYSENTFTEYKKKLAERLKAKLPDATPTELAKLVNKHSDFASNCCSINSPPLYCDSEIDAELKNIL

Broadly, the pKd is the negative decadic logarithm of the Kd, by convention in mol/L. As for cubilin (from UniProt O60494), the negative logarithm of the Kd (pKd) in series [1] is 6.96.

megalin (from UniProt P98164): in series [2], the pKd is 6.92.
